According to US20040109887A1:

Columns and labels:
[1] = target: HXBc2 gp160?CT glycoprotein (HIV-1 isolate HXBc2; bovine rhodopsin) (UniProt P04578); assay: FACS titration, anti-human IgG PE
[2] = target: Cleavage-competent YU2 gp160?CT glycoprotein (HIV-1 isolate YU2; bovine rhodopsin) (UniProt P35961); assay: FACS on 293T cells, with against without sCD4 preincubation (without = 100%)
[3] = target: cleavage-defective YU2 gp160?CT glycoprotein (HIV-1 isolate YU2; bovine rhodopsin) (UniProt P35961); assay: FACS on PLs, with against without sCD4 preincubation (without = 100%)
[4] = target: cleavage-defective YU2 gp160?CT glycoprotein (HIV-1 isolate YU2; bovine rhodopsin) (UniProt P35961); assay: FACS titration; saturation not reached with C11
[5] = target: cleavage-defective YU2 gp160?CT glycoprotein (HIV-1 isolate YU2; bovine rhodopsin) (UniProt P35961); assay: FACS titration on gp160?CT PLs / 293T cells, half-maximal binding

2F5 antibody
fold higher affinity on PLs with a reconstituted membrane than on beads without a membrane [1]: 10 fold

17b antibody
% increase of 17b binding after preincubation with sCD4 [2]: 63%
% increase of 17b binding after preincubation with sCD4 [3]: 46%

C11 antibody
fold lower affinity than IgG1b12 [4]: > 10 fold

IgG1b12 antibody
EC50 [5]: 6 nM
